Patent US20190183966A1 (EXTEND BIOSCIENCES, published 2019)

T1: PTH1 receptor expressed on mammalian cells (UniProt Q03431 27-593, limits assumed)
T1 sequence (looked up): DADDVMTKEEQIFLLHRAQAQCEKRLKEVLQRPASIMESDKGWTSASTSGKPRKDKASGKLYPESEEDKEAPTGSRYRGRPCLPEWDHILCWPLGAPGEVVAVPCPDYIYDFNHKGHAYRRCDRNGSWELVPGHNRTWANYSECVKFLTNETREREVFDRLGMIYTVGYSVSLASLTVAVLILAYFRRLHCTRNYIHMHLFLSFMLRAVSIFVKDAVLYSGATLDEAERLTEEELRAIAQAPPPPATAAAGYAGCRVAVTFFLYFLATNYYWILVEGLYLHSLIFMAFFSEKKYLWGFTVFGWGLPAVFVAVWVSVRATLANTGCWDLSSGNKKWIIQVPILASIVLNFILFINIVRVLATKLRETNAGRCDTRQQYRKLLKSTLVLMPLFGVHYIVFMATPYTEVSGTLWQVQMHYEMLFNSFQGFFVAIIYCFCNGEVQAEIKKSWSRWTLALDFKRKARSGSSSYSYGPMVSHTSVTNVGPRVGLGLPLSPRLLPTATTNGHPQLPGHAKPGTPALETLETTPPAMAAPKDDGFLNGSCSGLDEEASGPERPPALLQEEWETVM


How the values were obtained:
[1] = molecular target: human GLP-1 receptor (GLP1R) stably expressed on PathHunter cells (human, UniProt P43220 24-463); assay: cell-based or functional assay
[2] = molecular target: T1, PTH1 receptor expressed on mammalian …; assay: cell-based or functional assay

| EC50, recruitment of beta-Arrestin [1] | Calcium EC50 [2] | cAMP EC50 [2] | Binder |
| --- | --- | --- | --- |
| 510 nM | – | – | HAEGTFTSDVSSYLEGQAAKEFIAWLVKGRGC (C-terminal cysteine thiol conjugated to VitD-(25)-PEG2K-maleimide carrier) [GLP-1-C-PEG2K-(25)-VitD] |
| 520 nM | – | – | HAEGTFTSDVSSYLEGQAAKEFIAWLVKGRGC (C-terminal cysteine thiol conjugated to VitD-(3)-PEG2K-maleimide carrier) [GLP-1-C-PEG2K-(3)-VitD] |
| – | 14 nM | 0.0186 nM | SVSEIQLMHNLGKHLNSMERVEWLRKKLQDVHNFC (C-terminal cysteine thiol conjugated to VitD-(3)-PEG2K-maleimide carrier) [PTH-C-PEG2K-(3)-VitD] |
